Experimental data from US10100114B2, “Antibodies specific for TROP-2 and their uses” (RINAT NEUROSCIENCE CORP., priority 2011, dated 2018).

Columns and labels:
SW620 (Trop-2 −) cells = experiment: Flow cytometry binding, SW620 cells; assay type: cell-based; conditions: Table 10, 300,000 cells, 1 ug antibody
Description: For A431 cell staining, 200,000 cells were incubated with 0.5 ug antibody in 100 uL binding buffer (PBS (Phosphate Buffered Saline)+0.5% BSA (Bovine Serum Albumin)), followed by incubation with Dylight488-conjugated goat anti-human (Fab′)2-specific secondary antibody from Jackson immunoresearch Laboratories (West Grove, Pa.). For Colo205 and SW620 cells, 300,000 cells were used with 1 ug of primary antibody, followed by AlexaFluor 647 anti-human (Fab′)2-specific secondary antibody from Jackson immunoresearch Laboratories (West Grove, Pa.).
Similar to Example 7a), binding of chimeric mouse and humanized anti-Trop-2 6G11 antibodies (expressed in human IgG1 subtype) were assessed on Trop-2 expressing (A431 and Colo205) and non-expressing (SW620) cells by flow cytometry. 300,000 cells were used with 1 ug of primary antibody, followed by AlexaFluor 647 anti-human (Fab′)2-specific secondary antibody.

[1] = tested on: SW620 cells (Trop-2 non-expressing); experiment: Cytotoxicity of ADCs (CellTiter-Glo), SW620; assay type: cell-based; conditions: Table 12, SW620 (Trop-2−), 96 hours after treatment; for IC50: read-out: Ab-IC50
Description: Target expressing (A431, BxPC3, CAPAN-2 and Colo205) or non-expressing (SW620) cells were seeded on white walled clear bottom plates at 2000 cells/well for 24 hours before treatment. Cells were treated with 4 fold serially diluted antibody-drug conjugates in triplicates. Cell viability was determined by CellTiter-Glo® Luminescent Cell Viability Assay 96 (Promega, Madison Wis.) 96 hours after treatment. Relative cell viability was determined as percentage of untreated control. IC50 was calculated by Prism software.
2-methylalanyl-N-[(3R,4S,5S)-3-methoxy-1-{(2S)-2-[(1R,2R)-1-methoxy-2-methyl-3-oxo-3-{[(1S)-2-phenyl-1-(1,3-thiazol-2-yl)ethyl]amino}propyl]pyrrolidin-1-yl}-5-methyl-1-oxoheptan-4-yl]-N-methyl-L-valinamide is a novel auristatin, as described in U.S. Application Nos. 61/561,255 and 61/676,423. Method of conjugating Trop-2 antibodies using transglutaminase tags is described in Example 9. Target expressing or non-expressing (SW620) cells were seeded on white walled clear bottom plates at 2000 (A431, BxPC3, NCI-H292, NCI-H1650, MDA-MB-468 and SW620), 2500 (Calu-3) or 3000 (OVCAR3 and SKBR3) cells per well for 24 hours before treatment. Cells were treated with 4 fold serially diluted antibody-drug conjugates in triplicates. Cell viability was determined by CellTiter-Glo® Luminescent Cell Viability Assay 96 (Promega, Madison, Wis.) 96 hours after treatment. Relative cell viability was determined as percentage of untreated control. IC50 was calculated by GraphPad Prism 5 software and expressed as concentration (nM) of total Ab.

| Molecule | % positive (SW620 (Trop-2 −) cells) [%] | MFI (SW620 (Trop-2 −) cells) | Ab-IC50 [1] [µg/mL] | IC50 [1] [nM] |
| --- | --- | --- | --- | --- |
| h7E6_N: humanized anti-Trop-2 7E6 antibody, presumably VH SEQ ID NO: 4 with VL_N SEQ ID NO: 7 (antibody, V domains shown) VH: QVQLQESGPGLVKPSETLSLTCTVSGGSISSYGVHWIRQPPGKGLEWIGVIWTGGSTDYNSALMSRVTISVDTSKNQFSLKLSSVTAADTAVYYCARDGDYDRYTMDYWGQGTLVTVSS VL: DIVMTQSPDSLAVSLGERATINCRASKSVSTSNYSYMHWYQQKPGQPPKLLIYLASNLESGVPDRFSGSGSGTDFTLTISSLQAEDVAVYYCQHSRELPYTFGQGTKLEIK | 2.3 | 151 | – | – |
| h7E6-SVGL-TG1-vcMMAD: h7E6_SVGL hIgG1 with TG1 tag conjugated with AcLys-vcMMAD (conjugate) VH: QVQLQESGPGLVKPSETLSLTCTVSGGSISSYGVHWIRQPPGKGLEWIGVIWTSGVTDYNSALMGRVTISVDTSKNQFSLKLSSVTAADTAVYYCARDGDYDRYTMDYWGQGTLVTVSS VL: DIVMTQSPDSLAVSLGERATINCRASKSVSTSLYSYMHWYQQKPGQPPKLLIYLASNLESGVPDRFSGSGSGTDFTLTISSLQAEDVAVYYCQHSRELPYTFGQGTKLEIK | – | – | 10.800 | 72 |
| h7E6-WT-TG1-vcMMAD: h7E6-WT hIgG1 with TG1 tag conjugated with AcLys-vcMMAD (conjugate) VH: QVQLQESGPGLVKPSETLSLTCTVSGGSISSYGVHWIRQPPGKGLEWIGVIWTGGSTDYNSALMSRVTISVDTSKNQFSLKLSSVTAADTAVYYCARDGDYDRYTMDYWGQGTLVTVSS VL: DIVMTQSPDSLAVSLGERATINCRASKSVSTSGYSYMHWYQQKPGQPPKLLIYLASNLESGVPDRFSGSGSGTDFTLTISSLQAEDVAVYYCQHSRELPYTFGQGTKLEIK | – | – | 10.330 | 68.9 |
| h7E6_SVGN: humanized anti-Trop-2 antibody, VL SEQ ID NO: 7, VH SEQ ID NO: 5 (antibody, V domains shown) VH: QVQLQESGPGLVKPSETLSLTCTVSGGSISSYGVHWIRQPPGKGLEWIGVIWTSGVTDYNSALMGRVTISVDTSKNQFSLKLSSVTAADTAVYYCARDGDYDRYTMDYWGQGTLVTVSS VL: DIVMTQSPDSLAVSLGERATINCRASKSVSTSNYSYMHWYQQKPGQPPKLLIYLASNLESGVPDRFSGSGSGTDFTLTISSLQAEDVAVYYCQHSRELPYTFGQGTKLEIK | 2.5 | 140 | – | – |
| h7E6-N-TG1-vcMMAD: h7E6_N hIgG1 with TG1 tag conjugated with AcLys-vcMMAD (conjugate) VH: QVQLQESGPGLVKPSETLSLTCTVSGGSISSYGVHWIRQPPGKGLEWIGVIWTGGSTDYNSALMSRVTISVDTSKNQFSLKLSSVTAADTAVYYCARDGDYDRYTMDYWGQGTLVTVSS VL: DIVMTQSPDSLAVSLGERATINCRASKSVSTSNYSYMHWYQQKPGQPPKLLIYLASNLESGVPDRFSGSGSGTDFTLTISSLQAEDVAVYYCQHSRELPYTFGQGTKLEIK | – | – | 11.150 | 74.3 |
| h7E6-L-TG1-vcMMAD: h7E6_L hIgG1 with TG1 tag conjugated with AcLys-vcMMAD (conjugate) VH: QVQLQESGPGLVKPSETLSLTCTVSGGSISSYGVHWIRQPPGKGLEWIGVIWTGGSTDYNSALMSRVTISVDTSKNQFSLKLSSVTAADTAVYYCARDGDYDRYTMDYWGQGTLVTVSS VL: DIVMTQSPDSLAVSLGERATINCRASKSVSTSLYSYMHWYQQKPGQPPKLLIYLASNLESGVPDRFSGSGSGTDFTLTISSLQAEDVAVYYCQHSRELPYTFGQGTKLEIK | – | – | 8.535 | 56.9 |
